Source: publication PMC2788773 (Molecular cell, 2009)

Tests used:
Assay in all cases: pull-down
His6-S-Rad54 = biological target: T1, His6-S-Rad54 (S. cerevisiae (budding yeast), UniProt P32863 1-898)
T1 sequence (looked up): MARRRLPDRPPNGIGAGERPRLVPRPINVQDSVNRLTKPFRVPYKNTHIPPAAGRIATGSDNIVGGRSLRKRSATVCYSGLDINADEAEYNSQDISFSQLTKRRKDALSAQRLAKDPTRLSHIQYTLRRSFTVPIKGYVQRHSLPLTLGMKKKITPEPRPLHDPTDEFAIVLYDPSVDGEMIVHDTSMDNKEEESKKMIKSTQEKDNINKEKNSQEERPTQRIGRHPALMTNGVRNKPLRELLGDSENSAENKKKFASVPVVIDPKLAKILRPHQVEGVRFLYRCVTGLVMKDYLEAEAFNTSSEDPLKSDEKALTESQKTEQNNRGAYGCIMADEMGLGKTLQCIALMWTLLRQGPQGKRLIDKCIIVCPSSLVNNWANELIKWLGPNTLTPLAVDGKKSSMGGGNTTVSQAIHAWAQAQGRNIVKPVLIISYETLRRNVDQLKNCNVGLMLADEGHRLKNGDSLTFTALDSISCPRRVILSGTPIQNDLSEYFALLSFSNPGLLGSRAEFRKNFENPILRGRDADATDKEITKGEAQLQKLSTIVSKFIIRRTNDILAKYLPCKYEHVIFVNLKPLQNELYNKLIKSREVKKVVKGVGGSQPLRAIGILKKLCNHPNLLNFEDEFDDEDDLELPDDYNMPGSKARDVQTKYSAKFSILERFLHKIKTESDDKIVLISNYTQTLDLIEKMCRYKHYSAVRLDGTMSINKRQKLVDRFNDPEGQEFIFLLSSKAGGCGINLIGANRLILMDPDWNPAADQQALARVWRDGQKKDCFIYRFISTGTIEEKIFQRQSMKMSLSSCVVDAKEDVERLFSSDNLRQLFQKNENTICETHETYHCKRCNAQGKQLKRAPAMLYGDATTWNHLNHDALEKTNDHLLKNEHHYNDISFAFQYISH

His6-S-Rad54-T132D = biological target: T2, His6-S-Rad54-T132D (S. cerevisiae (budding yeast), UniProt P32863 1-898, T132D)
T2 sequence (looked up): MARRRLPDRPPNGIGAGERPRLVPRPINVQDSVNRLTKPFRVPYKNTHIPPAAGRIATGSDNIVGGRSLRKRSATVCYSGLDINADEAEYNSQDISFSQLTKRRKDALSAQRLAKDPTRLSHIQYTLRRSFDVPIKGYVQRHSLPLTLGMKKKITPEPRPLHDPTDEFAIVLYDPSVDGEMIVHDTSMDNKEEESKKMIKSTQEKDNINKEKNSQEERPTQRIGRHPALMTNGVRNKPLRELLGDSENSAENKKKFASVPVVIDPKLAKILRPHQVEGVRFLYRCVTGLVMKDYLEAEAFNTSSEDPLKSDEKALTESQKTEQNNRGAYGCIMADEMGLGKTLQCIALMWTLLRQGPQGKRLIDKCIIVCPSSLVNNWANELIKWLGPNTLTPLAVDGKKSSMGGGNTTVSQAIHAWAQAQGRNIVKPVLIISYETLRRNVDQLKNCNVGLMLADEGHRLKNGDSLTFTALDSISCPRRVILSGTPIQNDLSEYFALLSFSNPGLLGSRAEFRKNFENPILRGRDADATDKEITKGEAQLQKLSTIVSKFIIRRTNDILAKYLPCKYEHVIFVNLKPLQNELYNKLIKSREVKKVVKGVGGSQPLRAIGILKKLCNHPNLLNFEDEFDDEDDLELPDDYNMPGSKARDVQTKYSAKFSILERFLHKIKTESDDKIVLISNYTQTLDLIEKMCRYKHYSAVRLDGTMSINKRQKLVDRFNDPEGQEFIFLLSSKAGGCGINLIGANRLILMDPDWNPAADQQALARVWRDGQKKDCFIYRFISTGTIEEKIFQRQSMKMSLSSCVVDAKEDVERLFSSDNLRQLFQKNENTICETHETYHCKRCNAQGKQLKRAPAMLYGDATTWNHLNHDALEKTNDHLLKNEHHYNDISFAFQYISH

His6-S-Rad54-T132A = biological target: T3, His6-S-Rad54-T132A (S. cerevisiae (budding yeast), UniProt P32863 1-898, T132A)
T3 sequence (looked up): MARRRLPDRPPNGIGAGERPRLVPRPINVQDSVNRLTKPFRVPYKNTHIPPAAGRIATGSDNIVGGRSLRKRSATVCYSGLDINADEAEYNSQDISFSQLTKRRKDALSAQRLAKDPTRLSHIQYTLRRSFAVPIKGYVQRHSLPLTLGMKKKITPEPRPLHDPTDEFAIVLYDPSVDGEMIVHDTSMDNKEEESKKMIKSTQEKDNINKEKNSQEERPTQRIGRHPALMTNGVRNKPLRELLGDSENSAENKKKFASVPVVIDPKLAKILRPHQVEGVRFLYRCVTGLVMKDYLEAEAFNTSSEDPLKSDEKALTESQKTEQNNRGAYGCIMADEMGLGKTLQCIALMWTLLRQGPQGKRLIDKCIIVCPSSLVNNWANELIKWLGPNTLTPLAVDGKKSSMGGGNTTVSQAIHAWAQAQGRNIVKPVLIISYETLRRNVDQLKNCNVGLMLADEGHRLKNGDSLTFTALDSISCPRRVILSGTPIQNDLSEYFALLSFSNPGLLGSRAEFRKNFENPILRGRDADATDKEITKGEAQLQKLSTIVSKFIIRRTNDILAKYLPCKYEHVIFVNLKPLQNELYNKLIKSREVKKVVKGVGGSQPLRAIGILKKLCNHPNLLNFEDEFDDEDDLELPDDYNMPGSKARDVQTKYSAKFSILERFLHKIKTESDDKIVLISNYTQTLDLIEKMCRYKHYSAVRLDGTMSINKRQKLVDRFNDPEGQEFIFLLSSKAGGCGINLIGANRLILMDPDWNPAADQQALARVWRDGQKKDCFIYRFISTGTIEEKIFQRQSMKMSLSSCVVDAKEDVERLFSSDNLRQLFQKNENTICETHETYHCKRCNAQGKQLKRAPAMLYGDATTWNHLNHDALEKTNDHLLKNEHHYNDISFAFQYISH

B1: Rad51 (natural protein, S. cerevisiae (budding yeast), UniProt P25454 1-400, looked up)
chain: MSQVQEQHISESQLQYGNGSLMSTVPADLSQSVVDGNGNGSSEDIEATNGSGDGGGLQEQAEAQGEMEDEAYDEAALGSFVPIEKLQVNGITMADVKKLRESGLHTAEAVAYAPRKDLLEIKGISEAKADKLLNEAARLVPMGFVTAADFHMRRSELICLTTGSKNLDTLLGGGVETGSITELFGEFRTGKSQLCHTLAVTCQIPLDIGGGEGKCLYIDTEGTFRPVRLVSIAQRFGLDPDDALNNVAYARAYNADHQLRLLDAAAQMMSESRFSLIVVDSVMALYRTDFSGRGELSARQMHLAKFMRALQRLADQFGVAVVVTNQVVAQVDGGMAFNPDPKKPIGGNIMAHSSTTRLGFKKGKGCQRLCKVVDSPCLPEAECVFAIYEDGVGDPREEDE
With B1 the binding result (His6-S-Rad54) was “binds”, the “fold reduction in Rad51 binding compared to Rad54” value (His6-S-Rad54-T132D) was 2 fold and the binding result (His6-S-Rad54-T132A) was “binds”.
